The text below walks through data of patent US20220089695A1 (NEW YORK UNIVERSITY, published 2022).

A word on the EC50 (read off the curve): it is the concentration giving half of the maximal effect.

For assay [1], the target named is Human IgG1 Fc-tagged SARS-CoV-2 Spike (S) recombinant protein (SARS-CoV-2; human, UniProt P0DTC2 16-1213). The experiment in a line: Fc-tagged protein on receptor-transfected HEK293T cells, CDS imaging.
The target in assay [2] is SARS-CoV-2 S protein displayed on lentiviral (HIV-GFP) pseudovirus (SARS-CoV-2, UniProt P0DTC2 14-1273). The experiment in a line: pseudovirus on transfected HEK293T cells on ice, anti-S staining, flow cytometry. On the technique in general: A flow cytometer gives signals particle by particle.
Assay [3] deals with T1, Fc-tagged SARS-CoV-2 S N-terminal domain (SARS-CoV-2; human, UniProt P0DTC2 14-305).
T1 construct: domain: NTD
Description: Fc-tagged S domain on receptor-transfected HEK293T cells, CDS imaging.

Assay [4] addresses T2, Fc-tagged SARS-CoV-2 S2 subunit (SARS-CoV-2; human, UniProt P0DTC2 686-1213).
T2 construct: domain: S2
Description: CDS imaging on HEK293T cells expressing LSECtin, anti-human Fc detection.

In assay [5] the target is T3, Human IgG1 Fc-tagged SARS-CoV-2 S receptor-binding domain (SARS-CoV-2; human, UniProt P0DTC2 319-541).
T3 construct: domain: RBD
The experiment in a line: Fc-tagged protein on receptor-expressing HEK293T cells (FIG. 13B).

Assay [6] deals with Recombinant SARS-CoV-2-S1 protein with His tag (SARS-CoV-2, UniProt P0DTC2 16-685).
In assay [7] the target is T2, Fc-tagged SARS-CoV-2 S2 subunit. The experiment in a line: CDS imaging on HEK293T cells expressing DC-SIGN, anti-human Fc detection.
Assay [8] shares this target. The experiment in a line: CDS imaging on HEK293T cells expressing L-SIGN, anti-human Fc detection.

B1: Asialoglycoprotein Receptor 1 expressed on cells (receptor)
chain: MTKEYQDLQHLDNEESDHHQLRKGPPPPQPLLQRLCSGPRLLLLSLGLSLLLLVVVCVIGSQNSQLQEELRGLRETFSNFTASTEAQVKGLSTQGGNVGRKMKSLESQLEKQQKDLSEDHSSLLLHVKQFVSDLRSLSCQMAALQGNGSERTCCPVNWVEHERSCYWFSRSGKAWADADNYCRLEDAHLVVVTSWEEQKFVQHHIGPVNTWMGLHDQNGPWKWVDGTDYETGFKNWRPEQPDDWYGHGLGGGEDCAHFTDDGRWNDDVCQRPYRWVCETELDKASQEPPLL
notes: whole, on cells; also called ASGR1
With B1, the binding result in assay [1], in assay [2] and in assay [3] was “binds” each time.

B2: Liver and lymph node sinusoidal endothelial cell C-type lectin expressed on cells (receptor)
chain: MDTTRYSKWGGSSEEVPGGPWGRWVHWSRRPLFLALAVLVTTVLWAVILSILLSKASTERAALLDGHDLLRTNASKQTAALGALKEEVGDCHSCCSGTQAQLQTTRAELGEAQAKLMEQESALRELRERVTQGLAEAGRGREDVRTELFRALEAVRLQNNSCEPCPTSWLSFEGSCYFFSVPKTTWAAAQDHCADASAHLVIVGGLDEQGFLTRNTRGRGYWLGLRAVRHLGKVQGYQWVDGVSLSFSHWNQGEPNDAWGRENCVMMLHTGLWNDAPCDSEKDGWICEKRHNC
notes: whole, on cells; also called LSECtin; CLEC4G
For the molecule B2, the binding result in assay [4] is given as “binds”.

B3: C-type lectin domain family 10 member A expressed on cells (receptor)
chain: MTRTYENFQYLENKVKVQGFKNGPLPLQSLLQRLCSGPCHLLLSLGLGLLLLVIICVVGFQNSKFQRDLVTLRTDFSNFTSNTVAEIQALTSQGSSLEETIASLKAEVEGFKQERQAGVSELQEHTTQKAHLGHCPHCPSVCVPVHSEMLLRVQQLVQDLKKLTCQVATLNNNASTEGTCCPVNWVEHQDSCYWFSHSGMSWAEAEKYCQLKNAHLVVINSREEQNFVQKYLGSAYTWMGLSDPEGAWKWVDGTDYATGFQNWKPGQPDDWQGHGLGGGEDCAHFHPDGRWNDDVCQRPYHWVCEAGLGQTSQESH
notes: whole, on cells; also called CLEC10A
B3: the binding result in assay [1] and in assay [2] was “binds” in each case.

B4: Tweety Family Member 2 expressed on cells (receptor)
chain: MQAARVDYIAPWWVVWLHSVPHVGLRLQPVNSTFSPGDESYQESLLFLGLVAAVCLGLNLIFLVAYLVCACHCRRDDAVQTKQHHSCCITWTAVVAGLICCAAVGVGFYGNSETNDGAYQLMYSLDDANHTFSGIDALVSGTTQKMKVDLEQHLARLSEIFAARGDYLQTLKFIQQMAGSVVVQLSGLPVWREVTMELTKLSDQTGYVEYYRWLSYLLLFILDLVICLIACLGLAKRSKCLLASMLCCGALSLLLSWASLAADGSAAVATSDFCVAPDTFILNVTEGQISTEVTRYYLYCSQSGSSPFQQTLTTFQRALTTMQIQVAGLLQFAVPLFSTAEEDLLAIQLLLNSSESSLHQLTAMVDCRGLHKDYLDALAGICYDGLQGLLYLGLFSFLAALAFSTMICAGPRAWKHFTTRNRDYDDIDDDDPFNPQAWRMAAHSPPRGQLHSFCSYSSGLGSQTSLQPPAQTISNAPVSEYMNQAMLFGRNPRYENVPLIGRASPPPTYSPSMRATYLSVADEHLRHYGNQFPA
notes: whole, on cells; also called TTYH2; TTHY2
Take B4: the binding result in assay [5] is reported as “binds”.

B5: Recombinant DC-SIGN (CD209) with human Fc tag (Fc fusion)
chain: QVSKVPSSISQEQSRQDAIYQNLTQLKAAVGELSEKSKLQEIYQELTQLKAAVGELPEKSKLQEIYQELTRLKAAVGELPEKSKLQEIYQELTWLKAAVGELPEKSKMQEIYQELTRLKAAVGELPEKSKQQEIYQELTRLKAAVGELPEKSKQQEIYQELTRLKAAVGELPEKSKQQEIYQELTQLKAAVERLCHPCPWEWTFFQGNCYFMSNSQRNWHDSITACKEVGAQLVVIKSAEEQNFLQLQSSRSNRFTWMGLSDLNQEGTWQWVDGSPLLPSFKQYWNRGEPNNVGEEDCAEFSGNGWNDDKCNLAKFWICKKSAASCSRDEEQFLSPAPATPNPPPA
In the case of B5, the “EC50 (read off the curve)” value in assay [6] was approximately 0.8 µg/mL.

B6: Dendritic cell-specific intercellular adhesion molecule-3-grabbing nonintegrin expressed on cells (receptor)
chain: MSDSKEPRLQQLGLLEEEQLRGLGFRQTRGYKSLAGCLGHGPLVLQLLSFTLLAGLLVQVSKVPSSISQEQSRQDAIYQNLTQLKAAVGELSEKSKLQEIYQELTQLKAAVGELPEKSKLQEIYQELTRLKAAVGELPEKSKLQEIYQELTWLKAAVGELPEKSKMQEIYQELTRLKAAVGELPEKSKQQEIYQELTRLKAAVGELPEKSKQQEIYQELTRLKAAVGELPEKSKQQEIYQELTQLKAAVERLCHPCPWEWTFFQGNCYFMSNSQRNWHDSITACKEVGAQLVVIKSAEEQNFLQLQSSRSNRFTWMGLSDLNQEGTWQWVDGSPLLPSFKQYWNRGEPNNVGEEDCAEFSGNGWNDDKCNLAKFWICKKSAASCSRDEEQFLSPAPATPNPPPA
notes: whole, on cells; also called DC-SIGN; CD209
As to B6, the binding result in assay [7] is reported as “binds”.

B7: Liver/lymph node-specific intercellular adhesion molecule-3-grabbing integrin expressed on cells (receptor)
chain: MSDSKEPRVQQLGLLEEDPTTSGIRLFPRDFQFQQIHGHKSSTGCLGHGALVLQLLSFMLLAGVLVAILVQVSKVPSSLSQEQSEQDAIYQNLTQLKAAVGELSEKSKLQEIYQELTQLKAAVGELPEKSKLQEIYQELTRLKAAVGELPEKSKLQEIYQELTRLKAAVGELPEKSKLQEIYQELTRLKAAVGELPEKSKLQEIYQELTELKAAVGELPEKSKLQEIYQELTQLKAAVGELPDQSKQQQIYQELTDLKTAFERLCRHCPKDWTFFQGNCYFMSNSQRNWHDSVTACQEVRAQLVVIKTAEEQNFLQLQTSRSNRFSWMGLSDLNQEGTWQWVDGSPLSPSFQRYWNSGEPNNSGNEDCAEFSGSGWNDNRCDVDNYWICKKPAACFRDE
notes: whole, on cells; also called L-SIGN; CLEC4M
As to B7, the binding result in assay [8] is “binds”.
